In test [1] the target is mouse EphA4 extracellular region-SEAP-His protein (mouse). Put plainly: SPR (Biacore T200), mouse EphA4 extracellular region-SEAP-His captured on an anti-His antibody CM5 chip, antibody as analyte at 0.6-50 nM, 1:1 fit (run alongside F(ab')2). The procedure:
(§1) Next, the binding affinity of antibody A-Fab and antibody A-F(ab′)₂ for mouse and human EphA4 was determined by surface plasmon resonance (SPR) using Biacore T200 (GE Healthcare). Antibody A obtained in Example 1 was used as a control for the comparison of each fragment. First, an anti-His tag antibody was immobilized on sensor chip CM5. The immobilization of the anti-His tag antibody on sensor chip CM5 was performed by the amine coupling method using N-hydroxysuccinimide (NHS) and N-ethyl-N′-(3-dimethylaminopropyl)carbodiimide hydrochloride (EDC). Ethanolamine was used in blocking (the sensor chip and the reagents for immobilization were all manufactured by GE Healthcare). The antibody was diluted with a buffer solution for immobilization (10 mM sodium acetate, pH 4.5) into 3 μg/mL and immobilized on the sensor chip according to the protocol attached to Biacore T200.
(§2) Mouse or human EphA4 extracellular region-SEAP-His protein was diluted with a running buffer solution HBS-EP (GE Healthcare, BR-1001-88), injected onto a flow cell for 120 seconds, and captured (amount of the protein captured: approximately 10 to 20 RU). Subsequently, antibody A (50, 16.7, 5.6, 1.9, 0.6, and 0 nM), antibody A-Fab (500, 166.7, 55.6, 18.5, 6.2, and 0 nM), or antibody A-F(ab′)₂ (50, 16.7, 5.6, 1.9, 0.6, and 0 nM) serially diluted using HBS-EP was added to the sensor chip for 120 seconds. Binding reaction curves were sequentially observed at the time of the addition (association phase, for 120 sec) and after the completion of the addition (dissociation phase, for 900 sec). After the completion of each observation, the sensor chip was regenerated by the addition of 3 M MgCl₂ (Wako Pure Chemical Industries) (for 30 sec). The obtained binding reaction curves were subjected to fitting analysis with 1:1 binding models using software BIA evaluation attached to the system to calculate the binding affinity (KD=kd/ka) for mouse and human EphA4.
Background: Surface plasmon resonance follows binding to a sensor surface in real time, without labels.

Test [2] deals with T1, human EphA4 extracellular region-SEAP-His protein (human, UniProt P54764 20-547).
T1 construct: also called hEphA4-SEAP-His
As to the kind of experiment: SPR (Biacore T200), human EphA4 extracellular region-SEAP-His captured on an anti-His antibody CM5 chip, antibody as analyte at 0.6-50 nM, 1:1 fit (run alongside F(ab')2). Here is the method: as §1, §2

The target of test [3] is T2, monkey EphA4 extracellular region-Fc-His protein (monkey; human).
T2 construct: used as culture supernatant
As to the kind of experiment: ELISA, EphA4 extracellular region-Fc-His (1 nM) captured on the plate, antibody A titrated, HRP anti-mouse IgG detection, OD 450 nm. The procedure:
(§3) Each well of a 96-well plate (Nunc) was coated with a […] (Jackson ImmunoResearch Laboratories). After incubation overnight at 4° C., each well was blocked with 1% BlockAce (Sumitomo Dainippon Pharma) at room temperature for 1 hour. After washing with 0.05% Tween 20/PBS (Nacalai Tesque) three times, the mouse, rat, monkey, or human EphA4 extracellular region-Fc-His protein was disseminated (final concentration: 1 nM) to each well and incubated at room temperature for 1 hour. After washing three times, a human IgG solution (100 μg/mL, Mitsubishi Pharma) and antibody A (0, 0.00128, 0.0064, 0.032, 0.16, 0.8, 4, and 20 μg/mL) were added to each well and incubated at room temperature for 1 hour. A horseradish peroxidase-labeled donkey anti-mouse IgG antibody (Jackson ImmunoResearch Laboratories) was added thereto and incubated at room temperature for 1 hour. After washing three times, a TMBZ (3,3′,5,5′-tetramethylbenzidine, Sigma-Aldrich) solution was added to each well. After confirmation of moderate color development, an equal amount of a reaction stopping solution (1N H₂SO₄, Wako Pure Chemical Industries) was added to each well. The absorbance at 450 nm was read using a microplate reader (PerkinElmer).
A general note: ELISA stands for enzyme-linked immunosorbent assay.

Test [4] concerns the target T3, mouse EphA4 extracellular region-Fc-His protein (mouse; human, UniProt Q03137 20-547).
T3 construct: used as culture supernatant
Described as above. Here is the method:
as §3

Test [5] deals with T4, rat EphA4 extracellular region-Fc-His protein (rat; human, UniProt D3ZZK3 20-547).
T4 construct: range 20-547; used as culture supernatant
Described as above. The procedure: as §3

Test [6] concerns the target T5, human EphA4 extracellular region-Fc-His protein (human, UniProt P54764 20-547).
T5 construct: used as culture supernatant
Described as above. The procedure: as §3

For orientation: Kd means the concentration at which binding is half-saturated. As usually defined, the koff is a measure of how fast the partners let go of each other. The term kon denotes a measure of how fast the partners come together. As a reminder, the EC50 (read off the curve) is the concentration giving half of the maximal effect.

T1 sequence (P54764 20-547): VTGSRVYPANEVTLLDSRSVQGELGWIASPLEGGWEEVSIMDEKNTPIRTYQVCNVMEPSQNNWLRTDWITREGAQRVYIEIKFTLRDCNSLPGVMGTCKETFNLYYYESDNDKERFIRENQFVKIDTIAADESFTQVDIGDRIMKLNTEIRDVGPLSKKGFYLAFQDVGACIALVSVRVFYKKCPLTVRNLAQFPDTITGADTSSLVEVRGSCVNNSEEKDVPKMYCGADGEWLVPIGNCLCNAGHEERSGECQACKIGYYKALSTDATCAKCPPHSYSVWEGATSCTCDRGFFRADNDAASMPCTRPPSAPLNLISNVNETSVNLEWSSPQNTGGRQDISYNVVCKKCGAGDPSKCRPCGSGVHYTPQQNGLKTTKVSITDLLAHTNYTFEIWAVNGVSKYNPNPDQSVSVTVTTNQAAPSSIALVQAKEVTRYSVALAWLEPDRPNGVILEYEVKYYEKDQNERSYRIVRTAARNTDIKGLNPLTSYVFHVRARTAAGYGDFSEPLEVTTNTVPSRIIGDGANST
Sequence of mouse EphA4 extracellular region-SEAP-His protein (mouse) (chain, as listed by the source limits assumed): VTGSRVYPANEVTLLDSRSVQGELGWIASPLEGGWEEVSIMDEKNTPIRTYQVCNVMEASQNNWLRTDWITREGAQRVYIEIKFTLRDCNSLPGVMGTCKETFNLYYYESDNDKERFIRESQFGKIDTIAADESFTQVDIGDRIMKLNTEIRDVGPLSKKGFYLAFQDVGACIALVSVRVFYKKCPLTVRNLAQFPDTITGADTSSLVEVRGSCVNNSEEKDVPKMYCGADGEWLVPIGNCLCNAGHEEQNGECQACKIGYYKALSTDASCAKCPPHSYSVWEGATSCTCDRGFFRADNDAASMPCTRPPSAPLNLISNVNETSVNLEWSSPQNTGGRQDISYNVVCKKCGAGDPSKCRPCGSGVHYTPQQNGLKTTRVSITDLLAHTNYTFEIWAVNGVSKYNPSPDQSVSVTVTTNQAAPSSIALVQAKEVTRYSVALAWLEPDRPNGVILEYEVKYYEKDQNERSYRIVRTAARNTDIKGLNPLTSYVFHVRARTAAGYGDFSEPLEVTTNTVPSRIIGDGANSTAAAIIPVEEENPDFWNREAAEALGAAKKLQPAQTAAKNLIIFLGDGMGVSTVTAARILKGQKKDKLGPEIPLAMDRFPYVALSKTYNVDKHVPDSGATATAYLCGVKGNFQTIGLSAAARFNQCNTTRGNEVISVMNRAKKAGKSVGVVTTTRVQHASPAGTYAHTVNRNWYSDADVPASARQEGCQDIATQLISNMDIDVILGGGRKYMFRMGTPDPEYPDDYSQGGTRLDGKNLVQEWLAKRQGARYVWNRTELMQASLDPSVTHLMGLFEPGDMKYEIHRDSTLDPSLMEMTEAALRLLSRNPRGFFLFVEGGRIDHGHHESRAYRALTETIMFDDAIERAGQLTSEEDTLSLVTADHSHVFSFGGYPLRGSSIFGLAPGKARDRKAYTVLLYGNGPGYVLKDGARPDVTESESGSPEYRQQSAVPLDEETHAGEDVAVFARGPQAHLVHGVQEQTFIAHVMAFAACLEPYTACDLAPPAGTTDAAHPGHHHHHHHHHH
T3 sequence (Q03137 20-547): as the sequence (P54764 20-547) above, with P59A, N121S, V124G, R250Q, S251N, T270S, K378R, N406S counted along it
T5 sequence (P54764 20-547): as the sequence (P54764 20-547) above
T2 sequence (chain, as listed by the source): as the sequence (P54764 20-547) above, with N406S counted along it

B1: antibody A (antibody, mouse IgG1, kappa, V domains shown)
VH: QIQLVQSGPELKKPGETVKISCKASGYTFTDYSMHWVKQAPGKGLKWMGWINTETGEPTYADDFKGRFAFSLETSASTAYLQINNLKNEDTATYFCARIPLYYYGSRYWYFDVWGAGTTVTVSS
VL: DIQMTQSPASLSVSVGETVTITCRASENIYRNLAWYQQKQGKSPQLLVYAATNLADGVPSRFSGSGSGTQYSLKINSLQSEDFGSYYCQHFWGTPWTFGGGTKLEIKR
notes: mouse IgG1 heavy chain, kappa light chain; purified from hybridoma supernatant; also called anti-EphA4 monoclonal antibody; antibody A-IgG
Turning to B1, the Kd came to 42.3 pM in test [1] and 39.9 pM in test [2]. Further, the koff worked out at 0.000288 s⁻¹ in test [1] and 0.000236 s⁻¹ in test [2]. Moreover, the values for the kon in test [1] and in test [2] were 6.81e+06 M⁻¹ s⁻¹ and 5.91e+06 M⁻¹ s⁻¹, respectively. For the same molecule, the “EC50 (read off the curve)” value in test [3], in test [4], in test [5] and in test [6] was around 100 pM in each case.
